Experimental data reported in patent publication US20150307599A1 (GARVAN INSTITUTE OF MEDICAL RESEARCH, published 2015).
Where no end group is shown, it is not given here.

Experiments:
Test in all cases: indirect ELISA, peptide coated on the plate (20 µg/mL), MAb 5E12-B7 at 1 µg/mL, O.D. 450 nm
1p19-AEDMARYYSA = target: T1, 1p19-AEDMARYYSA
T1 construct: also called Peptide 1p19 (10 mer shifting across NPY)
T1 peptide: AEDMARYYSA-NH2
Procedure: (§1) ELISA was used to map the reactivity of purified MAb 5E12-B7 against the peptides described in Table 3. Briefly, ELISA microwell plates (96-well Maxisorp, Nunc) were coated overnight at 4° C. with 50 μL of mapping peptides (Table 3) diluted to 20 μg/mL in carbonate coating buffer (CCB). Between each of the following steps, microwell plates were washed three times with PBST using a plate washer (BioTek). Coated wells were blocked with 200 μL PBS containing 5% w/v skim milk (Diploma). Blocked wells were incubated for 1 hr with 50 μL of MAb 5E12-B7 diluted to 1 μg/mL in skim milk/PBST. Wells were then incubated for 1 hr with 50 μL Peroxidase-conjugated AffiniPure F(ab)2 fragment goat anti-mouse secondary antibody (Jackson) diluted 1:5000 in skim milk/PBST. Ig binding was detected by incubation of wells with 50 μL TMB substrate (Becton Dickinson). Substrate reaction was stopped after 15 min with 50 μL 1M H₂SO₄ and O.D. 450 nm was measured.

1p28-ALRHYINLIT = target: T2, 1p28-ALRHYINLIT
T2 construct: NPY residues 23-32; also called Peptide 1p28 (10 mer shifting across NPY)
T2 peptide: ALRHYINLIT-NH2
Procedure: as §1

1p29-LRHYINLITR = target: T3, 1p29-LRHYINLITR
T3 construct: NPY residues 24-33; also called Peptide 1p29 (10 mer shifting across NPY)
T3 peptide: LRHYINLITR-NH2
Procedure: as §1

1p30-RHYINLITRQ = target: T4, 1p30-RHYINLITRQ
T4 construct: NPY residues 25-34; also called Peptide 1p30 (10 mer shifting across NPY)
T4 peptide: RHYINLITRQ-NH2
Procedure: as §1

1p31-HYINLITRQR = target: T5, 1p31-HYINLITRQR
T5 construct: NPY residues 26-35; also called Peptide 1p31 (10 mer shifting across NPY)
T5 peptide: HYINLITRQR-NH2
Procedure: as §1

1p20-EDMARYYSAL = target: T6, 1p20-EDMARYYSAL
T6 construct: NPY residues 15-24; also called Peptide 1p20 (10 mer shifting across NPY)
T6 peptide: EDMARYYSAL-NH2
Procedure: as §1

1p21-DMARYYSALR = target: T7, 1p21-DMARYYSALR
T7 construct: NPY residues 16-25; also called Peptide 1p21 (10 mer shifting across NPY)
T7 peptide: DMARYYSALR-NH2
Procedure: as §1

1p22-MARYYSALRH = target: T8, 1p22-MARYYSALRH
T8 construct: NPY residues 17-26; also called Peptide 1p22 (10 mer shifting across NPY)
T8 peptide: MARYYSALRH-NH2
Procedure: as §1

1p23-ARYYSALRHY = target: T9, 1p23-ARYYSALRHY
T9 construct: NPY residues 18-27; also called Peptide 1p23 (10 mer shifting across NPY)
T9 peptide: ARYYSALRHY-NH2
Procedure: as §1

1p24-RYYSALRHYI = target: T10, 1p24-RYYSALRHYI
T10 construct: NPY residues 19-28; also called Peptide 1p24 (10 mer shifting across NPY)
T10 peptide: RYYSALRHYI-NH2
Procedure: as §1

1p25-YYSALRHYIN = target: T11, 1p25-YYSALRHYIN
T11 construct: NPY residues 20-29; also called Peptide 1p25 (10 mer shifting across NPY)
T11 peptide: YYSALRHYIN-NH2
Procedure: as §1

1p26-YSALRHYINL = target: T12, 1p26-YSALRHYINL
T12 construct: NPY residues 21-30; also called Peptide 1p26 (10 mer shifting across NPY)
T12 peptide: YSALRHYINL-NH2
Procedure: as §1

1p27-SALRHYINLI = target: T13, 1p27-SALRHYINLI
T13 construct: NPY residues 22-31; also called Peptide 1p27 (10 mer shifting across NPY)
T13 peptide: SALRHYINLI-NH2
Procedure: as §1

binding result (1p19-AEDMARYYSA): no binding (tested: 1 µg/mL)
binding result (1p28-ALRHYINLIT): no binding (tested: 1 µg/mL)
binding result (1p29-LRHYINLITR): no binding (tested: 1 µg/mL)
binding result (1p30-RHYINLITRQ): no binding (tested: 1 µg/mL)
binding result (1p31-HYINLITRQR): no binding (tested: 1 µg/mL)
binding result (1p20-EDMARYYSAL): no binding (tested: 1 µg/mL)
binding result (1p21-DMARYYSALR): no binding (tested: 1 µg/mL)
binding result (1p22-MARYYSALRH): no binding (tested: 1 µg/mL)
binding result (1p23-ARYYSALRHY): no binding (tested: 1 µg/mL)
binding result (1p24-RYYSALRHYI): no binding (tested: 1 µg/mL)
binding result (1p25-YYSALRHYIN): no binding (tested: 1 µg/mL)
binding result (1p26-YSALRHYINL): no binding (tested: 1 µg/mL)
binding result (1p27-SALRHYINLI): no binding (tested: 1 µg/mL)
B1: MAb 5E12-B7 (antibody, V domains shown)
VH: QVQLQHPGTEVVKPGASVKLSCKASGYTFTNYWMHWVKQRPGQGLEWIGNIDPSNGGTNYNEKFKSKATLTVDKSSSTAYMQLSSLTSEDSAVYYCASFAYWGQGTLVTVSA
VL: DIQMTQSPASLSASVGETVTITCRASGNIHNYLAWYQQKQGKSPQLLVYNAKTLADGVPSRFSGSGSGTQYSLKISSLRPEDFGSYYCQHFWSPPFTFGSGTKLEIK
notes: Biotinylated for the Biacore and Octet assays; also called PYY/NPY antibody (5E12); anti-NPY/PYY antibody 5E12
